According to paper PMC9482650, “Quantitative fragmentomics allow affinity mapping of interactomes” (Nature Communications, 2022):
Values belong to the binder of their own block, whether it stands above or below them.

What was measured:
Experiment in all cases: holdup assay
Design in all cases: key: below the threshold = too weak to quantify, mostly under pKd 3.1 to 4
Conditions in all cases: plain residues with an end cap or a label only (N-terminal biotin on a linker: ado-ado)
[1] = molecular target: Inadl_4, Q8NI35
[2] = molecular target: LAP2, Q96RT1
[3] = molecular target: GRIP2_3, Q9C0E4
[4] = molecular target: T1, DFNB31_2, Q9P202
T1 sequence (Q9P202 274-371, limits assumed, looked up): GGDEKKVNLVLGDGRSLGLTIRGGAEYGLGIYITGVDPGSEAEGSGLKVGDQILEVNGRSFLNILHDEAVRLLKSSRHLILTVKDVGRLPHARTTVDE

[5] = molecular target: MAGI3_2, Q5TCQ9
[6] = molecular target: SCRIB_2, Q14160
[7] = molecular target: T2, LIN7B, Q9HAP6
T2 sequence (Q9HAP6 88-185, limits assumed, looked up): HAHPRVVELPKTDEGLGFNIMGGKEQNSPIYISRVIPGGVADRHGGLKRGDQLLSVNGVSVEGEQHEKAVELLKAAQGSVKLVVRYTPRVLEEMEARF

[8] = molecular target: T3, LNX2_3, Q8N448
T3 sequence (Q8N448 463-564, limits assumed, looked up): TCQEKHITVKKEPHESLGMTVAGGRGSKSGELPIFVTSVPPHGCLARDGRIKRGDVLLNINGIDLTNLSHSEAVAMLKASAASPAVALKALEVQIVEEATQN

[9] = molecular target: T4, GRIP1_2, Q9Y3R0
T4 sequence (Q9Y3R0 145-248, limits assumed, looked up): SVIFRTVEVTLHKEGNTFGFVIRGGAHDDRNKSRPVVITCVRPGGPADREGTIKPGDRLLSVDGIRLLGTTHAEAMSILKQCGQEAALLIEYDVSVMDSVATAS

[10] = molecular target: T5, ARHGEF11, O15085
T5 sequence (O15085 42-136, limits assumed, looked up): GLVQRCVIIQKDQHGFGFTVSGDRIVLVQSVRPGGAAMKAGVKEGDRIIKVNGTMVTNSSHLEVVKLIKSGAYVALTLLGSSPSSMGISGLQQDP

[11] = molecular target: Inadl_8, Q8NI35
[12] = molecular target: Inadl_5, Q8NI35
[13] = molecular target: Inadl_10, Q8NI35
[14] = molecular target: AHNAK1, Q09666
[15] = molecular target: PICK1, Q9NRD5
[16] = molecular target: T6, TX1BP3, O14907
T6 sequence (O14907 10-122, limits assumed, looked up): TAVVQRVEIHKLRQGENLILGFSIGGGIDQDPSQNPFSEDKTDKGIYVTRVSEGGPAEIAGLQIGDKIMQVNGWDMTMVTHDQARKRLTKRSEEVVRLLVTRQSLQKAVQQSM

[17] = molecular target: T7, SHANK1, Q9Y566
T7 sequence (Q9Y566 658-767, limits assumed, looked up): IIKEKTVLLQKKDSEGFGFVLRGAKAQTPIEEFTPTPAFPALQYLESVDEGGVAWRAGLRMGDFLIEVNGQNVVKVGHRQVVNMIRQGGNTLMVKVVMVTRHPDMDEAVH

[18] = molecular target: Inadl_3, Q8NI35
[19] = molecular target: T8, PTPN13_1, Q12923
T8 sequence (Q12923 1088-1188, limits assumed, looked up): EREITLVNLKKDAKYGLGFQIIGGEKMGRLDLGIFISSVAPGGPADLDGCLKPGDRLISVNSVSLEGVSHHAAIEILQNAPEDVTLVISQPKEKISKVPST

[20] = molecular target: GRASP, Q7Z6J2
[21] = molecular target: HTRA1, Q92743
[22] = molecular target: PARD3_3, Q8TEW0
[23] = molecular target: TJP2_1, Q9UDY2
[24] = molecular target: T9, PDZRN3_1, Q9UPQ7
T9 sequence (Q9UPQ7 244-349, limits assumed, looked up): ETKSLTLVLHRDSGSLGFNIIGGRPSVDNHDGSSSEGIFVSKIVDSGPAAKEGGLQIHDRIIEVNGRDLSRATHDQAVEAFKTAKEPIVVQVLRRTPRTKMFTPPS

[25] = molecular target: T10, PDZD2_2, O15018
T10 sequence (O15018 329-429, limits assumed, looked up): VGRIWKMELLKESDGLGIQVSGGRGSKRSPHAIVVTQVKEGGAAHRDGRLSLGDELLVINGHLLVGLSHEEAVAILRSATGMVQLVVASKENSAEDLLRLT

[26] = molecular target: T11, SNTB1, Q13884
T11 sequence (Q13884 107-205, limits assumed, looked up): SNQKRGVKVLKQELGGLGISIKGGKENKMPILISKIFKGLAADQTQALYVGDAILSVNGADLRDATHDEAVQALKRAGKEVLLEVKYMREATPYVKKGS

Sequence of Inadl_5, Q8NI35 (Q8NI35 673-780): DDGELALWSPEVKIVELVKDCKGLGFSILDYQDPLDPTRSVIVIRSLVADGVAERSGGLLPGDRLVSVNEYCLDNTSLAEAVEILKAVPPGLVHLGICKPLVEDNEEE
Sequence of Inadl_3, Q8NI35 (Q8NI35 359-469): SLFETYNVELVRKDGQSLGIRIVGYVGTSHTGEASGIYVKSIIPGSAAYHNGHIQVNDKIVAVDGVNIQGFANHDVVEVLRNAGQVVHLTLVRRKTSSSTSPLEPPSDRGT
Sequence of Inadl_8, Q8NI35 (Q8NI35 1425-1530): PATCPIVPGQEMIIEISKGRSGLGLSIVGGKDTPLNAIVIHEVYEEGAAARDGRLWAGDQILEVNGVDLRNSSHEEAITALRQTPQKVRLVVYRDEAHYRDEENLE
Sequence of SCRIB_2, Q14160 (Q14160 857-960): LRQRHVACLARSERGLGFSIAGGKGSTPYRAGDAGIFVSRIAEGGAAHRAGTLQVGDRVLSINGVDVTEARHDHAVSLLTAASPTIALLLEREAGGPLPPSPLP
Sequence of PARD3_3, Q8TEW0 (Q8TEW0 582-685): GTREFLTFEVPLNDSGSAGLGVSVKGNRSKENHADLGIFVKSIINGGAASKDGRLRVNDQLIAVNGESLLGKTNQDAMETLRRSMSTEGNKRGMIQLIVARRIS
Sequence of MAGI3_2, Q5TCQ9 (Q5TCQ9 398-503): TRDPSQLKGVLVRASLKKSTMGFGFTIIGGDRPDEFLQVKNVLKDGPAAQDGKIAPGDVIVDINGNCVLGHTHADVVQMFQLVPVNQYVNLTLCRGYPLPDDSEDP
Sequence of TJP2_1, Q9UDY2 (Q9UDY2 24-128): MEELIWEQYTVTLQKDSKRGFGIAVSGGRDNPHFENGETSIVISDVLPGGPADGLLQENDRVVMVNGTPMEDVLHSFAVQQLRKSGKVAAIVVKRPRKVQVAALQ
Sequence of Inadl_4, Q8NI35 (Q8NI35 547-651): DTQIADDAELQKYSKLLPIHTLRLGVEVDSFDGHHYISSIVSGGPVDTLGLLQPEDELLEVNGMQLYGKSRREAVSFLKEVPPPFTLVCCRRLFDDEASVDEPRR
Sequence of Inadl_10, Q8NI35 (Q8NI35 1673-1763): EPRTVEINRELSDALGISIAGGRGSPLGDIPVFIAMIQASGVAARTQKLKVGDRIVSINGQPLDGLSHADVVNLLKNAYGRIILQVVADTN
Sequence of HTRA1, Q92743 (Q92743 360-477): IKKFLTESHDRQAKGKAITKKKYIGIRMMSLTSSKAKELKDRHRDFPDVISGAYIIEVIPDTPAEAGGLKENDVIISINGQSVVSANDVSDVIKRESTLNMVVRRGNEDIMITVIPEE
Sequence of GRASP, Q7Z6J2 (Q7Z6J2 96-193): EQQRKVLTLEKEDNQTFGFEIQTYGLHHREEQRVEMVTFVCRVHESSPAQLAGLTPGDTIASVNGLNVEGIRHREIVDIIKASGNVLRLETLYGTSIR
Sequence of LAP2, Q96RT1 (Q96RT1 other isoform, or with tags, fused parts or gaps): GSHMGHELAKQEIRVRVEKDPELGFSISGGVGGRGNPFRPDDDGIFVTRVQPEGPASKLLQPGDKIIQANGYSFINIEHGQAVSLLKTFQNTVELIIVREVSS
Sequence of PICK1, Q9NRD5 (Q9NRD5 17-115): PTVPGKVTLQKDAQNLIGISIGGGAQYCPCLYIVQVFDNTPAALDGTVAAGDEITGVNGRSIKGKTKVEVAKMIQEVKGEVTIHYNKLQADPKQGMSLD
Sequence of AHNAK1, Q09666 (Q09666 4-100): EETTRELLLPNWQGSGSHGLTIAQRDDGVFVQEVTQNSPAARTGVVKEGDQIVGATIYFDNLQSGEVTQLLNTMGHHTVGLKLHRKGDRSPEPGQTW
Sequence of GRIP2_3, Q9C0E4 (Q9C0E4 238-339): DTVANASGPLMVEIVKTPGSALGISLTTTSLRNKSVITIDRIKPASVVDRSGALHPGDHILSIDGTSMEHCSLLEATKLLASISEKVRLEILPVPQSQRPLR

B5: MYPN, Q86TC9 (peptide)
chain: SRSVVESDEL
pKd [1]: below the threshold
pKd [22]: below the threshold
pKd [2]: below the threshold
pKd [3]: below the threshold
pKd [4]: below the threshold
pKd [5]: below the threshold
pKd [6]: below the threshold
pKd [7]: below the threshold
pKd [8]: below the threshold
pKd [9]: below the threshold
pKd [10]: 3.74
pKd [24]: below the threshold
pKd [23]: below the threshold
pKd [11]: below the threshold
pKd [12]: below the threshold
pKd [13]: below the threshold
pKd [14]: below the threshold
pKd [15]: below the threshold
pKd [16]: below the threshold
pKd [25]: below the threshold
pKd [17]: below the threshold
pKd [18]: below the threshold
pKd [19]: below the threshold
pKd [26]: below the threshold
pKd [20]: 4.14
pKd [21]: 3.69

B6: CRIPT, Q9P021 (peptide)
chain: DTKNYKQTSV
pKd [1]: below the threshold
pKd [22]: below the threshold
pKd [2]: 4.32
pKd [3]: below the threshold
pKd [4]: 3.74
pKd [5]: 4.72
pKd [6]: 4.61
pKd [7]: below the threshold
pKd [8]: below the threshold
pKd [9]: below the threshold
pKd [10]: 4.12
pKd [24]: 4.12
pKd [23]: below the threshold
pKd [11]: 4.66
pKd [12]: below the threshold
pKd [13]: below the threshold
pKd [14]: below the threshold
pKd [15]: 4.15
pKd [16]: 5.4
pKd [25]: 4.76
pKd [17]: below the threshold
pKd [18]: below the threshold
pKd [19]: below the threshold
pKd [26]: 4.73
pKd [20]: 4.11
pKd [21]: below the threshold

Continued, values first:

pKd [1]: below the threshold
pKd [2]: below the threshold
pKd [3]: below the threshold
pKd [4]: below the threshold
pKd [5]: below the threshold
pKd [6]: below the threshold
pKd [7]: below the threshold
pKd [8]: below the threshold
pKd [9]: below the threshold
pKd [10]: 4.32
pKd [11]: below the threshold
pKd [12]: below the threshold
pKd [13]: below the threshold
pKd [14]: below the threshold
pKd [15]: below the threshold
pKd [16]: 4.34
pKd [17]: below the threshold
pKd [18]: 4.28
pKd [19]: below the threshold
pKd [20]: 4.08
pKd [21]: 4.51
B1: NF2, P35240;P35240-1 (peptide)
chain: KSRVAFFEEL

pKd [1]: below the threshold
pKd [22]: below the threshold
pKd [3]: below the threshold
pKd [4]: below the threshold
pKd [5]: 3.86
pKd [7]: 3.68
pKd [8]: below the threshold
pKd [9]: below the threshold
pKd [10]: 3.74
pKd [23]: below the threshold
pKd [12]: below the threshold
pKd [13]: below the threshold
pKd [14]: below the threshold
pKd [17]: 3.92
pKd [18]: below the threshold
pKd [21]: below the threshold
B2: MUC3A, MUC3B, Q02505;Q9H195 (peptide)
chain: KRPEMTSSSV

pKd [1]: below the threshold
pKd [22]: 5.28
pKd [2]: below the threshold
pKd [3]: below the threshold
pKd [4]: below the threshold
pKd [5]: 4.06
pKd [6]: below the threshold
pKd [7]: 3.75
pKd [8]: below the threshold
pKd [9]: below the threshold
pKd [10]: below the threshold
pKd [24]: below the threshold
pKd [23]: below the threshold
pKd [11]: below the threshold
pKd [12]: below the threshold
pKd [13]: below the threshold
pKd [14]: below the threshold
pKd [15]: 4.19
pKd [16]: below the threshold
pKd [25]: 4.54
pKd [17]: below the threshold
pKd [18]: 5.46
pKd [19]: below the threshold
pKd [26]: below the threshold
pKd [20]: below the threshold
pKd [21]: 5.31
B3: CNTNAP2, Q9UHC6 (peptide)
chain: IDESKKEWLI

pKd [1]: below the threshold
pKd [22]: below the threshold
pKd [2]: below the threshold
pKd [3]: below the threshold
pKd [4]: below the threshold
pKd [5]: 3.51
pKd [6]: below the threshold
pKd [7]: below the threshold
pKd [8]: below the threshold
pKd [9]: below the threshold
pKd [10]: 4.2
pKd [24]: 3.48
pKd [23]: 4.1
pKd [11]: below the threshold
pKd [12]: below the threshold
pKd [13]: below the threshold
pKd [14]: below the threshold
pKd [15]: below the threshold
pKd [16]: below the threshold
pKd [25]: 3.52
pKd [17]: 3.93
pKd [18]: below the threshold
pKd [19]: below the threshold
pKd [26]: 3.56
pKd [20]: 4.43
pKd [21]: 3.55
B4: REELD1, A0A1B0GV85 (peptide)
chain: PSVGSKKTVL
